Laboratory results from patent publication US20140220596A1 (MEDICINAL BIOCONVERGENCE RESEARCH CENTER, published 2014).

B1: CDH1 (Fc fusion, not shown: a dimerising Fc or GST; small tags and cut ends)
chain: DWVIPPISCPENEKGPFPKNLVQIKSNKDKEGKVFYSITGQGADTPPVGVFIIERETGWLKVTEPLDRERIATYTLFSHAVSSNGNAVEDPMEILITVTDQNDNKPEFTQEVFKGSVMEGALPGTSVMEVTATDADDDVNTYNAAIAYTILSQDPELPDKNMFTINRNTGVISVVTTGLDRESFPTYTLVVQAADLQGEGLSTTATAVITVTDTNDNPPIFNPTTYKGQVPENEANVVITTLKVTDADAPNTPAWEAVYTILNDDGGQFVVTTNPVNNDGILKTAKGLDFEAKQQYILHVAVTNVVPFEVSLTTSTATVTVDVLDVNEAPIFVPPEKRVEVSEDFGVGQEITSYTAQEPDTFMEQKITYRIWRDTANWLEINPDTGAISTRAELDREDFEHVKNSTYTALIIATDNGSPVATGTGTLLLILSDVNDNAPIPEPRTIFFCERNPKPQVINIIDADLPPNTSPFTAELTHGASANWTIQYNDPTQESIILKPKMALEVGDYKINLKLMDNQNKDQVTTLEVSVCDCEGAAGVCRKAQPVEAGLQIPA
notes: one of the remaining CDHs (group m5); also called Fc-CDH1; Fc-fused soluble cadherin-1
B2: CDH11 (Fc fusion, not shown: a dimerising Fc or GST; small tags and cut ends)
chain: GWVWNQFFVIEEYTGPDPVLVGRLHSDIDSGDGNIKYILSGEGAGTIFVIDDKSGNIHATKTLDREERAQYTLMAQAVDRDTNRPLEPPSEFIVKVQDINDNPPEFLHETYHANVPERSNVGTSVIQVTASDADDPTYGNSAKLVYSILEGQPYFSVEAQTGIIRTALPNMDREAKEEYHVVIQAKDMGGHMGGLSGTTKVTITLTDVNDNPPKFPQSVYQMSVSEAAVPGEEVGRVKAKDPDIGENGLVTYNIVDGDGMESFEITTDYETQEGVIKLKKPVDFETKRAYSLKVEAANVHIDPKFISNGPFKDTVTVKISVEDADEPPMFLAPSYIHEVQENAAAGTVVGRVHAKDPDAANSPIRYSIDRHTDLDRFFTINPEDGFIKTTKPLDREETAWLNITVFAAEIHNRHQEAKVPVAIRVLDVNDNAPKFAAPYEGFICESDQTKPLSNQPIVTISADDKDDTANGPRFIFSLPPEIIHNPNFTVRDNRDNTAGVYARRGGFSRQKQDLYLLPIVISDGGIPPMSSTNTLTIKVCGCDVNGALLSCNAEAYILNAGLST
notes: one of the remaining CDHs (group m5); also called Fc-CDH11; Fc-fused soluble cadherin-11
B3: CDH8 (Fc fusion, not shown: a dimerising Fc or GST; small tags and cut ends)
chain: GWVWNQMFVLEEFSGPEPILVGRLHTDLDPGSKKIKYILSGDGAGTIFQINDVTGDIHAIKRLDREEKAEYTLTAQAVDWETSKPLEPPSEFIIKVQDINDNAPEFLNGPYHATVPEMSILGTSVTNVTATDADDPVYGNSAKLVYSILEGQPYFSIEPETAIIKTALPNMDREAKEEYLVVIQAKDMGGHSGGLSGTTTLTVTLTDVNDNPPKFAQSLYHFSVPEDVVLGTAIGRVKANDQDIGENAQSSYDIIDGDGTALFEITSDAQAQDGIIRLRKPLDFETKKSYTLKVEAANVHIDPRFSGRGPFKDTATVKIVVEDADEPPVFSSPTYLLEVHENAALNSVIGQVTARDPDITSSPIRFSIDRHTDLERQFNINADDGKITLATPLDRELSVWHNITIIATEIRNHSQISRVPVAIKVLDVNDNAPEFASEYEAFLCENGKPGQVIQTVSAMDKDDPKNGHYFLYSLLPEMVNNPNFTIKKNEDNSLSILAKHNGFNRQKQEVYLLPIIISDSGNPPLSSTSTLTIRVCGCSNDGVVQSCNVEAYVLPIGLSM
notes: one of the remaining CDHs (group m5); also called Fc-CDH8; Fc-fused soluble cadherin-8
B4: CDH20 (Fc fusion, not shown: a dimerising Fc or GST; small tags and cut ends)
chain: SWVWNQFFVLEEYTGTDPLYVGKLHSDMDRGDGSIKYILSGEGAGIVFTIDDTTGDIHAIQRLDREERAQYTLRAQALDRRTGRPMEPESEFIIKIQDINDNEPKFLDGPYVATVPEMSPVGTSVIQVTATDADDPTYGNSARVVYSILQGQPYFSVDSKTGVIRTALMNMDREAKEYYEVIIQAKDMGGQLGGLAGTTTVNITLSDVNDNPPRFPQKHYQMSVLESAPISSTVGRVFAKDLDEGINAEMKYTIVDGDGADAFDISTDPNFQVGIITVKKPLSFESKKSYTLKVEGANPHLEMRFLNLGPFQDTTTVHISVEDVDEPPVFEPGFYFVEVPEDVAIGTTIQIISAKDPDVTNNSIRYSIDRSSDPGRFFYVDITTGALMTARPLDREEFSWHNITVLAMEMNNPSQVGSVPVTIKVLDVNDNAPEFPRFYEAFVCENAKAGQLIQTVSAVDQDDPRNGQHFYYSLAPEAANNPNFTIRDNQDNTARILTRRSGFRQQEQSVFHLPILIADSGQPVLSSTGTLTIQVCSCDDDGHVMSCSPEAYMLPVSLSR
notes: one of the remaining CDHs (group m5); also called Fc-CDH20; Fc-fused soluble cadherin-20
B5: CDH16 (Fc fusion, not shown: a dimerising Fc or GST; small tags and cut ends)
chain: KAQPAELSVEVPENYGGNFPLYLTKLPLPREGAEGQIVLSGDSGKATEGPFAMDPDSGFLLVTRALDREEQAEYQLQVTLEMQDGHVLWGPQPVLVHVKDENDQVPHFSQAIYRARLSRGTRPGIPFLFLEASDRDEPGTANSDLRFHILSQAPAQPSPDMFQLEPRLGALALSPKGSTSLDHALERTYQLLVQVKDMGDQASGHQATATVEVSIIESTWVSLEPIHLAENLKVLYPHHMAQVHWSGGDVHYHLESHPPGPFEVNAEGNLYVTRELDREAQAEYLLQVRAQNSHGEDYAAPLELHVLVMDENDNVPICPPRDPTVSIPELSPPGTEVTRLSAEDADAPGSPNSHVVYQLLSPEPEDGVEGRAFQVDPTSGSVTLGVLPLRAGQNILLLVLAMDLAGAEGGFSSTCEVEVAVTDINDHAPEFITSQIGPISLPEDVEPGTLVAMLTAIDADLEPAFRLMDFAIERGDTEGTFGLDWEPDSGHVRLRLCKNLSYEAAPSHEVVVVVQSVAKLVGPGPGPGATATVTVLVERVMPPPKLDQESYEASVPISAPAGSFLLTIQPSDPISRTLRFSLVNDSEGWLCIEKFSGEVHTAQSLQGAQPGDTYTVLVEAQDTDEPRLSASAPLVIHFLKAPPAPALTLAPVPSQYLCTPRQDHGLIVSGPSKDPDLASGHGPYSFTLGPNPTVQRDWRLQTLNGSHAYLTLALHWVEPREHIIPVVVSHNAQMWQLLVRVIVCRCNVEGQCMRKVGRMKGMPTKLSA
notes: one of the remaining CDHs (group m5); also called Fc-CDH16; Fc-fused soluble cadherin-16
B6: CDH13 (Fc fusion, not shown: a dimerising Fc or GST; small tags and cut ends)
chain: SIVVSPILIPENQRQPFPRDVGKVVDSDRPERSKFRLTGKGVDQEPKGIFRINENTGSVSVTRTLDREVIAVYQLFVETTDVNGKTLEGPVPLEVIVIDQNDNRPIFREGPYIGHVMEGSPTGTTVMRMTAFDADDPATDNALLRYNIRQQTPDKPSPNMFYIDPEKGDIVTVVSPALLDRETLENPKYELIIEAQDMAGLDVGLTGTATATIMIDDKNDHSPKFTKKEFQATVEEGAVGVIVNLTVEDKDDPTTGAWRAAYTIINGNPGQSFEIHTNPQTNEGMLSVVKPLDYEISAFHTLLIKVENEDPLVPDVSYGPSSTATVHITVLDVNEGPVFYPDPMMVTRQEDLSVGSVLLTVNATDPDSLQHQTIRYSVYKDPAGWLNINPINGTVDTTAVLDRESPFVDNSVYTALFLAIDSGNPPATGTGTLLITLEDVNDNAPFIYPTVAEVCDDAKNLSVVILGASDKDLHPNTDPFKFEIHKQAVPDKVWKISKINNTHALVSLLQNLNKANYNLPIMVTDSGKPPMTNITDLRVQVCSCRNSKVDCNAAG
notes: one of the remaining CDHs (group m5); also called Fc-CDH13; Fc-fused soluble cadherin-13
B7: CDH5 (Fc fusion, not shown: a dimerising Fc or GST; small tags and cut ends)
chain: DWIWNQMHIDEEKNTSLPHHVGKIKSSVSRKNAKYLLKGEYVGKVFRVDAETGDVFAIERLDRENISEYHLTAVIVDKDTGENLETPSSFTIKVHDVNDNWPVFTHRLFNASVPESSAVGTSVISVTAVDADDPTVGDHASVMYQILKGKEYFAIDNSGRIITITKSLDREKQARYEIVVEARDAQGLRGDSGTATVLVTLQDINDNFPFFTQTKYTFVVPEDTRVGTSVGSLFVEDPDEPQNRMTKYSILRGDYQDAFTIETNPAHNEGIIKPMKPLDYEYIQQYSFIVEATDPTIDLRYMSPPAGNRAQVIINITDVDEPPIFQQPFYHFQLKENQKKPLIGTVLAMDPDAARHSIGYSIRRTSDKGQFFRVTKKGDIYNEKELDREVYPWYNLTVEAKELDSTGTPTGKESIVQVHIEVLDENDNAPEFAKPYQPKVCENAVHGQLVLQISAIDKDITPRNVKFKFILNTENNFTLTDNHDNTANITVKYGQFDREHTKVHFLPVVISDNGMPSRTGTSTLTVAVCKCNEQGEFTFCEDMAAQVGVSIQ
notes: one of the remaining CDHs (group m5); also called Fc-CDH5; Fc-fused soluble cadherin-5

The binders below were run against T1, His-tagged recombinant human glycyl-tRNA synthetase (GRS), 685 amino acids (human, UniProt P41250 55-739) (assay: ELISA: plate coated with His-GRS or BSA, Fc-fused cadherin added, detected with anti-human IgG1 Fc-HRP; axis OD 490nm).
T1 construct: Expressed in E. coli; also called His-GRS; his-tagged GRS; not shown: His tag from vector pET-28a (EcoRI/XhoI)
T1 sequence: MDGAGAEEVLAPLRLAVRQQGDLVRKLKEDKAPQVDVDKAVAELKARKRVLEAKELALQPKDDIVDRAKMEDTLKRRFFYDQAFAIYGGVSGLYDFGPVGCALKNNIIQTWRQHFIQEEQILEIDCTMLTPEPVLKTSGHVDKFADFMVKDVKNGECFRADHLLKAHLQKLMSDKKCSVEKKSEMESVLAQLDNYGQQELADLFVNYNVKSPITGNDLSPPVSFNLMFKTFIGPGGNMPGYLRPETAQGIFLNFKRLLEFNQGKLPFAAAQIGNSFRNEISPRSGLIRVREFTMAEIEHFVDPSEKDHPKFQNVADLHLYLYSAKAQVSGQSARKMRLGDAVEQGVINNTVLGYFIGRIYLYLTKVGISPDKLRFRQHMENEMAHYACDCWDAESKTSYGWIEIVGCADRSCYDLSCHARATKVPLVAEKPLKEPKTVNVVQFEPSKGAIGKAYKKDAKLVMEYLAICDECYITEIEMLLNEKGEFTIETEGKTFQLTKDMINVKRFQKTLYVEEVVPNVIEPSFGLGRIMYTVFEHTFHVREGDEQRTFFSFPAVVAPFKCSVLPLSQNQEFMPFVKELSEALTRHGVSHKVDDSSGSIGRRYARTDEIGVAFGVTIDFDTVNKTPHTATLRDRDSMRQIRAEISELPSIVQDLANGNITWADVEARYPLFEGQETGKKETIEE
Description: (A) A panel of Fc-fused soluble cadherin family proteins was bound to His-tagged GRS or to BSA-coated plates, and complexes were detected with the IgG1 Fc-HRP (Thermo) reagent. (B) To confirm the binding between cadherins and GRS, Fc-CDH2, 6 and 18 were incubated with His-GRS. Fc-CDHs were precipitated with protein A/G agarose and co-precipitated GRS was determined by immunoblotting. (C) To calculate the equilibrium dissociation constant (IQ), immobilized Fc-fused (to gold chips) cadherins were incubated with GRS (31.25 nM˜1 uM). Binding of GRS to CDH6 was determined by surface plasmon resonance and expressed as resonance units (RU). (D) To confirm the binding between CDH6 and GRS domain peptides, Fc-CDH6 was incubated with different domains (F1, 2, 3 and 4) of GRS that were expressed as the GST fusion proteins. GST-GRS proteins were precipitated with GSH-sepharose beads and co-precipitated CDH6 was determined by immunoblotting. (E) Five difference cancers cells were determined for the expression of CDH6 by immunoblotting. (F) HCT116 cells were transfected with non-specific siRNA controls (si-con) or two differently designed siRNAs targeting CDH6 (#1 and #2), treated with biotinylated GRS (15 nM), and the binding of GRS was analyzed by immunoblotting. (G) HCT116 cells were transfected with si-con and si-CDH6 as described above, and cell binding of GRS was measured by FACS analysis. (H) HCT116 cells were incubated with His-GRS (150 nM). To neutralize the effects of GRS, Fc-fused CDH6 (300 nM) was added and the cell viability was determined by the MTT assay. Error bars represent standard deviation. (I) The binding between CDH6 and GRS domain peptides was again confirmed by ELISA assay.
To identifying the receptor of GRS, a Maxisorp plate (Nunc, Rochester, N.Y.) was used for an ELISA detection. The plate were coated with purified his-tagged GRS (1 ug/ml) or BSA (1 ug/ml) in phosphate buffer saline and then blocked (PBS, 4% non-fat milk). Fc-fusion cadherin family proteins (1 ug/ml) were added to the plate and after washing with PBST (0.05% Tween20), the plates were incubated with anti-human IgG1 Fc-HRP (Thermo, Waltham, Mass.). […]
B1: no binding (tested: 1 ug/ml (single concentration)).
B2: no binding (tested: 1 ug/ml (single concentration)).
B3: no binding (tested: 1 ug/ml (single concentration)).
B4: no binding (tested: 1 ug/ml (single concentration)).
B5: no binding (tested: 1 ug/ml (single concentration)).
B6: no binding (tested: 1 ug/ml (single concentration)).
B7: no binding (tested: 1 ug/ml (single concentration)).
